Measurements: the supplement of paper PMC10567573

B1: TMEM175 (parent)
chain: ALLHQAETLQPSVWFGGREHVLMF
B2: ZNF263 (parent)
chain: VPGTQVGQGGKLWDPSVQSCKEGL

Variants of: B1
Experiment: protein stability index of a GFP-peptide fusion (GPS, HEK-293T) (PSI 1-6); higher = more stable
Conditions: c terminus: a fixed tail appended
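Also: lentivirally expressed fusions sorted by FACS into six bins by GFP to DsRed ratio, PSI derived from sequencing read proportions per bin multiplied by bin number.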

Variant | protein stability index
ALLHQAETLQPSVWFGGREHVLMM [F24M] | 3.11
ALLDQAETLQPSVWFGGREHVLMF [H4D] | 1.89
ALLFQAETLQPSVWFGGREHVLMF [H4F] | 3.14
ALLWQAETLQPSVWFGGREHVLMF [H4W] | 3.3
ALLHQAETLQPSVWFGGREHVLIF [M23I] | 2.59
ALLHQAETLQPSVWFGGREHVLLF [M23L] | 3.66
ALLHQAETLQPSVWFGGREHVLPF [M23P] | 1.35
ALLHQAETLQPSVWFGGREHVLHF [M23H] | 2.39
ALLHQAETLQPSVWFGGREHGLMF [V21G] | 2.89
ALLHQAETLQPSVWFGGREHKLMF [V21K] | 2.1
ALLHQAETLQPSVWFGNREHVLMF [G17N] | 2.51
ALLHQAETLQPSVWFGPREHVLMF [G17P] | 1.05
ALLHQAETLQPSVWFGIREHVLMF [G17I] | 2.68
ALRHQAETLQPSVWFGGREHVLMF [L3R] | 1.62
ALNHQAETLQPSVWFGGREHVLMF [L3N] | 1.04
ALCHQAETLQPSVWFGGREHVLMF [L3C] | 2.26
ALEHQAETLQPSVWFGGREHVLMF [L3E] | 1.94
ALLHQAESLQPSVWFGGREHVLMF [T8S] | 1.65

Variants of: B2
Experiment: as above
Conditions: c terminus: a fixed tail appended

Variant | protein stability index
VPGTQVGQGGKLWDPSVQSGKEGL [C20G] | 4.74
VPGTQVGQGGKLWDPSVQSVKEGL [C20V] | 4.36
VPGTQVGQGGKLWDPSVQSMKEGL [C20M] | 4.43
VPGTQVGQGGKLWDPSVQSSKEGL [C20S] | 4.31
VPGTQVGQGGKLWDPSVQSNKEGL [C20N] | 4.68
VPGTQVGQGGKLWDPSVQSWKEGL [C20W] | 3.08
VPGTQVGQGGKLWDPSVQSHKEGL [C20H] | 3.6
VPGTQVGQGGKLWDPSVQSEKEGL [C20E] | 5.02
VPGTQVGQGGKLWDPSVQSAKEGL [C20A] | 4.15
VPGTQVGQGGKLWDPSVQSYKEGL [C20Y] | 3.52
VPGTQVGQGGKLWDPSVQSLKEGL [C20L] | 4.05
VPGTQVGQGGKLWDPSVQSQKEGL [C20Q] | 4.6
VPGTQVGQGGKLWDPSVQSKKEGL [C20K] | 4.13
VPGTQVGQGGKLWDPSVQSDKEGL [C20D] | 4.59
VPGTQVGQGGKLWDPSVQSPKEGL [C20P] | 4.33
VPGTQVGQGGKLWDPSVQSRKEGL [C20R] | 4.04
VPGTQVGQGGKLWDPSVQSTKEGL [C20T] | 4.25
VPGTQVGQGGKLWDPSVQSIKEGL [C20I] | 3.79
VPGTQVGQGGKLWDPSVQSFKEGL [C20F] | 3.1
VPGTQVGQGGKLWDPSVQLCKEGL [S19L] | 4.04
VPGTQVGQGGKLWDPSVQVCKEGL [S19V] | 4.31
VPGTQVGQGGKLWDPSVQICKEGL [S19I] | 3.77
VPGTQVGQGGKLWDPSVQGCKEGL [S19G] | 4.41
VPGTQVGQGGKLWDPSVQMCKEGL [S19M] | 3.69
VPGTQVGQGGKLWDPSVQFCKEGL [S19F] | 3.98
VPGTQVGQGGKLWDPSVQECKEGL [S19E] | 4.38
VPGTQVGQGGKLWDPSVQACKEGL [S19A] | 4.35
VPGTQVGQGGKLWDPSVQDCKEGL [S19D] | 4.88
VPGTQVGQGGKLWDPSVQCCKEGL [S19C] | 3.39
